Consider three molecules from patent publication US20160177276A1 (Merck KGaA, published 2016).

The target in experiment [1] is T1, CD47 (human, UniProt Q08722 19-323).
T1 construct: whole, on cells; Human by the cells used (blood of human donors; human Ramos, A549, BT474, Raji, Namalwa cells); also called human CD47
Put plainly: flow cytometry on CD47-low human Ramos cells. The procedure:
(§1) After washing again, cells were fixed with 1% formaldehyde in PBS. Cells were analyzed by flow cytometry (MACSQuant, Miltenyi Biotec, Cologne, Germany).

Experiment [2] concerns the target T1, CD47. Put plainly: flow cytometry on CD47-high (CD47-transfected) CHO cells. The procedure: as §1
(In flow cytometry, cells or beads pass a laser one at a time.)

In experiment [3] the target is T2, HER2 (human, UniProt P04626 23-1255).
T2 construct: whole, on cells; The cells carry CD47 as well
Put plainly: flow cytometry on BT474 cells. The procedure: After washing with PBS+1% FBS, cells were incubated with FITC F(ab′)2 goat Anti-Human IgG, Fcγ (Jackson ImmunoResearch, West Grove, Pa.), diluted 1:200 in PBS+1% FBS for 60 min on ice. After washing again, cells were fixed with 1% formaldehyde in PBS. Cells were analyzed by flow cytometry (MACSQuant, Miltenyi Biotec, Cologne, Germany).

Experiment [4] deals with T1, CD47. Put plainly: flow cytometry on CD47-transfected CHO cells.

B1: chimeric antibody B6H12/huIgG1 (antibody, V domains shown)
VH: EVQLQESGGDLVKPGGSLKLSCAASGFTFSGYGMSWVRQTPDKRLEWVATITSGGTYTYYPDSVKGRFTISRDNAKNTLYLQIDSLKSEDTAIYFCARSLAGNAMDYWGQGTTVTVSS
VL: DIVITQSPATLSVTPGDRVSLSCRASQTISDYLHWYQQKSHESPRLLIKFASQSISGIPSRFSGSGSGSDFTLSINSVEPEDVGVYYCQNGHGFPRTFGGGTKLEIKR
notes: also called anti-CD47; anti-CD47 huIgG1
One may read the EC50 as the midpoint of the concentration-response curve. A higher EC50 goes with a less potent agent. Consider B1, for which the EC50 in experiment [1] amounted to 6 nM; in experiment [2] it was 7 nM.

B2: Fcab(HER2) (other)
chain: EPKSSDKTHTCPPCPAPELLGGPSVFLFPPKPKDTLMISRTPEVTCVVVDVSHEDPEVKFNWYVDGVEVHNAKTKPREEQYNSTYRVVSVLTVLHQDWLNGKEYKCKVSNKALPAPIEKTISKAKGQPREPQVYTLPPSRDEYLYGDVSLTCLVKGFYPSDIAVEWESNGQPENNYKTTPPVLDSDGSFFLYSKLTVPRHSARMWRWAHGNVFSCSVMHEALHNHYTQKSLSLSPGK
notes: also called anti-HER2 Fcab H10-03-6
On to B2, for which the binding result in experiment [3] is listed as “binds”; in experiment [4], “no binding”.

B3: anti-CD20 huIgG1 (antibody, V domains shown)
VH: QVQLQQPGAELVKPGASVKMSCKASGYTFTSYNMHWVKQTPGRGLEWIGAIYPGNGDTSYNQKFKGKATLTADKSSSTAYMQLSSLTSEDSAVYYCARSTYYGGDWYFNVWGAGTTVTVSA
VL: QIVLSQSPAILSASPGEKVTMTCRASSSVSYIHWFQQKPGSSPKPWIYATSNLASGVPVRFSGSGSGTSYSLTISRVEAEDAATYYCQQWTSNPPTFGGGTKLEIKR
notes: Control in standard monoclonal antibody format, huIgG1, based on 2B8 (rituximab); not shown: rest of the human IgG1 heavy chain
Turning to B3, in experiment [4], the binding result is recorded as “no binding”.
